Assay: yeast display, Sf9 membrane polyspecificity reagent, FACS + sequencing; frameworks hold sequencing errors
How it was run: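 Galactose-induced (36–48 hours) yeast carrying a synthetic nanobody display library were exposed to 10% biotinylated, detergent-solubilized Sf9 membrane reagent at 4 °C for 1 hour. FACS followed streptavidin microbead enrichment, using low and high (top ~1%) gates for expression (anti-HA) and reagent binding (streptavidin). Colony PCR, MiSeq 2 × 250 sequencing and CDR-length filtering followed. Labels for polyreactivity reflect the gate of origin.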

Sequence	polyreactivity (PSR sort gate)
QVQLVESGGGLVQAGGSLRLSCAASGSTFWIYAMGWYRPAPGKERELVAAITLRSGSTYYADSVKGRFTISRDNAKNTVYLQMNSLKPEDTAVYYCAKDYYGTYYAQYNYWGQGTQVTVSS	low polyreactivity
QVQLVESGGGLVQAGGSLRLSCAASGSTFWIYAMGWYRQAPGKERELVAAITLRSGSTYYADSVKGRFTISRDNAKNTVYLQMYSLKPEDTAVYYCATDSWGVDRPNYNYWGQGTQVTVSS	low polyreactivity
QVQLVESGGGLVQAGGSLRLSCAASGSTFWIYPMGWYRQAPGKERELVAAISNGDSTNYADSVKGRFTISRDNAKNTVYLQMNSLKPEDTAVYYCARQYRIFKTFKYDYWGQGTQVTVSS	low polyreactivity
QVQLVESGGGLVQAGGSLRLSCAASGSTFWKYAMGWYRQAPGKERELVASIRSGGSTYYADSVKGRFTISRDNAKNNVYLQMNSLKPEDTAVYYCNAMSRTVSHEADDYWGQGTQVTVSS	high polyreactivity
QVQLVESGGGLVQAGGSLRLSCAASGSTFWLNAMGWYRQAPGKERELVADISRSGGSTYYADSVKGRFTISRDNAKNTVYLQMNSLKPEDTAVYYCAADSWPDQFTVYPGGDYWGQGTQVTVSS	low polyreactivity
QVQLVESGGGLVQAGGSLRLSCAASGSTFWLYAMGRYRPAPGKERELVASISSRGGSTYYADSVKGRFTISRDNAKNTVYLQMNSLKPEDTAVYYCAAKDIRYDDDYWGQGTQVTVSS	low polyreactivity
QVQLVESGGGLVQAGGSLRLSCAASGSTFWLYAMGWYRQAPGKERELVAAIRSGDRTNYADSEKGRFTISRDNAKNTVYLQMNSLKPEDTAVYYCAAVAYLNWTPHYYWGQRTQVTVSS	low polyreactivity
QVQLVESGGGLVQAGGSLRLSCAASGSTFWPNAMGWYRQAPGKERELVAAISWSSSSGGRTYYADSVKGRFTISRDNAKNTVYLQMNSLKPEDTAVYYCNASYRDEDDYWGQGTQVTVSS	high polyreactivity
QVQLVESGGGLVQAGGSLRLSCAASGSTFWRYAMGWYRQAPGKERELVAAITRRGSSTYYADSVKGRFTISRDNAKNTVVLQMNSLKPEDTAVYYCAAPGYVRTGVTYGGYYWGQGTQVTVSS	high polyreactivity
QVQLVESGGGLVQAGGSLRLSCAASGSTFWSYAMGWYRQAPGKEREFVAAISSSDDSTYYADSVKGRFTISRDNAKNTVYLQMNSMKPEDTAVYYCATSWYIYPYDYWGQGTQVTVSS	low polyreactivity
QVQLVESGGGLVQAGGSLRLSCAASGSTFWSYAMGWYRQAPGKERELVAAISYRGTRTRYADSVKGRFTISRDNAKNTVYLQMNSLKPEDTAVYYCAADRTFYGIRFDYWGQGTQVTVSS	high polyreactivity
QVQLVESGGGLVQAGGSLRLSCAASGSTFWSYAMGWYRQAPGKERELVAVITGSDGRTFYADSVKGRFTISRDNAKNTVYFQINSLKPEDTAVYYCAADAVFRATRDDRSTSEDDYWGQGTQVTVSS	low polyreactivity
QVQLVESGGGLVQAGGSLRLSCAASGSTFWVYGMGWYRQAPGKERELVADITSIGGSTYYADSVKGRFTISRDNAKNTVYLQMNSLKPEDTAVYYCAARETWYPYYWMGYWGQGTQVTVSS	high polyreactivity
QVQLVESGGGLVQAGGSLRLSCAASGSTFWWKTMGWYRLAPGKERELVADIRTSGGGTYYADSVKGRFTISRDNAKNNVYLQMYSLKPEDTAVYYCNADPKWEMGSWGQGTQVTVSS	low polyreactivity
QVQLVESGGGLVQAGGSLRLSCAASGSTFWWYAMGWYRQAPGKERELVAAISYSGSSTYYADSVKGRFTISRDNAKNTVYLQMNSLKPEDTAVYYCAADIQYYYNFYPGDYWGQGTQVTVSS	low polyreactivity
QVQLVESGGGLVQAGGSLRLSCAASGSTFWYNAMGWYRQAPGKERELVAAISASGGSTYYADSVKGRFTISRDNAKNTVYLQMNSLKPEDTAVYYCAAGSFWGYSRYRTYYGFDYWGQGTQVTVSS	high polyreactivity
QVQLVESGGGLVQAGGSLRLSCAASGSTFWYYAMGWYRQAPGKEREFVAAINRSGASTYYADSVKGRFTISRDNAKNTVYLEMNSLKPEDTAVYYCAAAVYLQYLDDPTYGYWGQGTQVTVSS	high polyreactivity
QVQLVESGGGLVQAGGSLRLSCAASGSTFWYYAMGWYRQAPGKERELVASITYSGGSTYYADSVKGRFTISRDNAKNTVSLQMNSLKPEDTAVYYCAAEGYYSNYHYWGQGTQVTVSS	low polyreactivity
QVQLVESGGGLVQAGGSLRLSCAASGSTFWYYTMGWSRQAPGKERELVAGITSGGSTYYADSVKGRFTISRDNAKNTVYLQMNSLKPEDTAVYYCAKRYYGRGYYYWGQGTQVTVSS	high polyreactivity
QVQLVESGGGLVQAGGSLRLSCAASGSTFYAKAMGWYRQAPGKERELVATINRRGNTYYADSVKGRFTISRDNAKNTVYLQMNSLKPEDTAVYYCAADYRRYGSYDYWGQGTQVTVSS	low polyreactivity
QVQLVESGGGLVQAGGSLRLSCAASGSTFYANAMGWYRQAPGKDRELVAAITRSGAGTYYADSVKGRFTISRDNAKNTGYLQMNSLKPEDTAVYYCAKRTKTPTGYVWGGYDYWGQGTQVTGSS	high polyreactivity

Sequence	polyreactivity (PSR sort gate)
QVQLVESGGGLVQAGGSLRLSCAASGSTFYANAMGWYRQAPGKERELVAVIRWSGGSTYYADSVKGRFTISRDNAKNTVYLQMNSLKPEDTAVYYCNADFYRVAYLRRYSHFDYWGQGTQVTVSS	high polyreactivity
QVQLVESGGGLVQAGGSLRLSCAASGSTFYAYAMGWYRQAPGKERELVAAISSDGTNYADSVKGRFTISRDNAKNTVYLQMNSLKPEDTAVFYCAADLLLYSSQDNDYWGQGTQVTVSS	low polyreactivity
QVQLVESGGGLVQAGGSLRLSCAASGSTFYAYAMGWYRQAPGKERELVAVITSSGSTYYADSVKGRFTISRDNAKNTVYLQMNSLKPEDTAVYYCARVSYRGYGYWGQGTQVTVSS	high polyreactivity
QVQLVESGGGLVQAGGSLRLSCAASGSTFYAYAMGWYRQAPGKEWELVAAITYSGGTPYYADSVKGRFTISRDNAKNTVYLQMNSLKPEDTAVYYCAARYRGLTGHIDGYWGQGTQVTVSS	low polyreactivity
QVQLVESGGGLVQAGGSLRLSCAASGSTFYAYAMGWYRQAPGTERELVAAITTIGGRTYYADSVKGRFTISRDNAKNTVYLQMNSLKPEDTAVYYCAADIRSNRLYDGGYWGQGTQVTVSS	low polyreactivity
QVQLVESGGGLVQAGGSLRLSCAASGSTFYAYTMGWYRQAPGKERELVARISGRGGSTYYADSVKGRFTISRDIAKNTVYLQMNSLKPEDTAVYYCAARVYGTYRGIQYGYWGQGTQVTVSS	high polyreactivity
QVQLVESGGGLVQAGGSLRLSCAASGSTFYDNAKGWYRQAPGKERELVAGITESGGSTYYADSVKGRFTISRDNAKNTVYLQMNSLKPEDTAVYYCAAVYTYIPYLTYYYWGQGTQVTVSS	low polyreactivity
QVQLVESGGGLVQAGGSLRLSCAASGSTFYDNAMGWYRQAPGKERELVASIRSGGSTKYADSVKGRFTISRDNAKNTVYLQMNSLKPEDTAVYYCAADVHFVKDPPVKSIYGKFYYWGQGTQVTVSS	low polyreactivity
QVQLVESGGGLVQAGGSLRLSCAASGSTFYENTMGWYRQAPGKERELVAAISFRGGSTYYADSVKGRFTISRDNAKNTVYLQMNSLKPEETAVYYCAKEYYTVRLYDYWGQGTQVTVSS	low polyreactivity
QVQLVESGGGLVQAGGSLRLSCAASGSTFYEYAMGWYRQAPGKERELVAAISSGGSTYYADSVTGRFTISRDNAKNTVYLLMNSLKPEDTAVYYCNADCQTYCGEYDYWGQGTQVTVSS	low polyreactivity
QVQLVESGGGLVQAGGSLRLSCAASGSTFYFNAMGWYRQAPGKERELVATIRSGDSTYYADSVKGRFTISSDNAKNTVYLQMNSLKPVDTAVYSCPGPLPYYGQYDYWGQGTQVTVSS	low polyreactivity
QVQLVESGGGLVQAGGSLRLSCAASGSTFYFYAMGWYREAPGKERELVAAISKRGTSTYYADSVKGRFTISRDNAKNTVYLEMNSLKPEDTAVYFCAADAPRGYNYWGQGTQVTVSS	high polyreactivity
QVQLVESGGGLVQAGGSLRLSCAASGSTFYFYAMGWYRQAPGKERELVAVISSGGRTYYADSVKGRFTISRDNAKNTVYLQMNSLKPEDTAVYYCAASWPSSLTYYYWGQGTQVTVSS	low polyreactivity
QVQLVESGGGLVQAGGSLRLSCAASGSTFYGNAMGWYRQAPGKERELVAAITWGDASTYYADSVKGRFTISRDNAKNTVYLQMNSLKPEDTAVYYCAVDESYGSSSDMDYWGQGTQVTVSS	low polyreactivity
QVQLVESGGGLVQAGGSLRLSCAASGSTFYGNMGWYRQAPGKERELVAAITYRGTNTYYADSVKGRFTISRDNAKNTVYLQMNSLKPEDTAVYYCAAEYDVYQGRGRYYGYDYWGQGTQVTVSS	high polyreactivity
QVQLVESGGGLVQAGGSLRLSCAASGSTFYGYAMGWYRQAPGKERELVAAISSGASTYYADSVKGRFTISRDNAKNSVYLQMNSLKPEDTAVYYCAAYSYPKKYGYWGQGTQVTVSL	high polyreactivity
QVQLVESGGGLVQAGGSLRLSCAASGSTFYGYAMGWYRQAPGKERELVAAISSSATRTYYADSVKGRFTISRDNAKNTVYLQMNSLKPEDTAVYYCAAVSTLLYYHYYTRDYWGQGTQVTVSS	high polyreactivity
QVQLVESGGGLVQAGGSLRLSCAASGSTFYGYAMGWYRQAPGKERELVAAITRSGGSTYYADSVKGRFTISRDNAKNTVYLQMNSLIPEDTEVYYCNKDGYKGGVGYDYWGQGTQVTVSS	high polyreactivity
QVQLVESGGGLVQAGGSLRLSCAASGSTFYGYAMGWYRQAPGKERELVAVISRSGGGTSYADSVKGRFTISRDNAKNTVYLQMNSLKPEDTAVYYCNAAKYLYRHGFMSAGDMYYWGQGTQVTVSS	high polyreactivity
QVQLVESGGGLVQAGGSLRLSCAASGSTFYGYAMGWYRQAPGKERELVAVISRSGGSTYYADSVKGRFTISRDNAKNTVYLQMNILKPEDTAVYYCNARWSFSYTVWVDSYWGLDDYWGQGTQVTVSS	high polyreactivity
